Experimental data: patent US8865473B2, “Luminescence detecting apparatuses and methods” (Applied Biosystems, LLC, priority 1999, dated 2014)

Target: T1, Orexin 2 Receptor (Homo sapiens, UniProt O43614)
T1 construct: host or cells: CHO cells co-expressing aequorin (CHO-Aeq-OX2-A2)
T1 sequence (O43614 1-444): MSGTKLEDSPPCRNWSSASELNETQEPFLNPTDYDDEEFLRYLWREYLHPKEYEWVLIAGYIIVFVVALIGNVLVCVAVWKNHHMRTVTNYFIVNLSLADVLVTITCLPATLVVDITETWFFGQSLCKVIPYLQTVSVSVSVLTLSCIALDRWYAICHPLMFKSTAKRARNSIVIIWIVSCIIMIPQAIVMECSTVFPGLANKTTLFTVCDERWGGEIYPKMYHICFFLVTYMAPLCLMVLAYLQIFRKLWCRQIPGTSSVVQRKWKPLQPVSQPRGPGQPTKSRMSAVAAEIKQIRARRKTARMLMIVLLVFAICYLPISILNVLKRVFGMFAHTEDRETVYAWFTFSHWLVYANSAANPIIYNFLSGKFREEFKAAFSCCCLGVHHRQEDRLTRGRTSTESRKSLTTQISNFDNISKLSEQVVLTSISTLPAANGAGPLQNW
Experiment: Aequorin luminescence agonist assay in CHO-Aeq-OX2-A2 cells on NorthStar
Assay type: cell-based
Details: coelenterazine h +/- 0.6 μM BAPTA-AM 4 hours, light integrated 20 seconds, unchanged in the presence of BAPTA-AM, read-out: reported EC50 for Orexin B
Method: CHO-Aeq-OX2-A2 cells (Euroscreen) were loaded with coelenterazine h+/−0.6 μM BAPTA-AM for 4 hours. The peptide agonist Orexin B was injected into the wells, and the emitted light was integrated for 20 seconds on the NorthStar™.

Orexin B
EC50: 0.75 nM
